Stoichiometry N and Kd data for 3 substances are collected here from PMC4423211 (2015).

In general, stoichiometry N refers to the number of molecules, sites or subunits per partner or assembly. Broadly, the Kd is the concentration at which binding is half-saturated. Low values mean a tighter complex, high ones a looser complex.

Assay [1] concerns the target IL-1RAcP-ECD (His6-tagged, for crystallography) (mouse) (UniProt Q61730). Briefly: crystal structure; sitting drop vapour diffusion at 20 °C; the two proteins mixed at a molar ratio of 1:1 to about 6 g/l before crystallisation.
The target in assay [2] is IL1RAPL1-ECD-His6, wild type (mouse) (UniProt P59823). The description is as above.
The target in assay [3] is IL1RAPL1-ECD D292A (mouse) (UniProt P59823). The experiment in a line: SPR; equilibrium; Biacore T200, 25 °C, 10 mM Hepes (pH 7.9), 150 mM NaCl, 0.05% Tween-20; IL1RAPL1-ECD-His6 amine-coupled on a CM5 chip (about 2,000 RU); PTPδ Ig1–Fn1 variants or mutants injected as analytes, 15.6 to 4,000 nM. (In SPR one partner is held on a chip, and binding of the other changes the refractive index at the surface.)

Assay [4] deals with IL1RAPL1-ECD D37A (mouse) (UniProt P59823). Described as above.
For assay [5], the target named is IL1RAPL1-ECD M75A/Y77A/P88A/F91A (mouse) (UniProt P59823). The description is as above.
Assay [6] deals with IL1RAPL1-ECD-His6, wild type (mouse) (UniProt P59823). The description is as above.
In assay [7] the target is IL-1RAcP-ECD D30A (mouse) (UniProt Q61730). Briefly: SPR; equilibrium; Biacore T200, 25 °C, 10 mM Hepes (pH 7.9), 150 mM NaCl, 0.05% Tween-20; IL-1RAcP-ECD-Fc captured (about 700 RU) by anti-Fc antibodies immobilised on a CM5 chip; PTPδ Ig1–Fn1 variants or mutants injected as analytes, 15.6 to 4,000 nM.
Assay [8] has as its target IL-1RAcP-ECD K94A (mouse) (UniProt Q61730). Described as above.
Assay [9] has as its target IL-1RAcP-ECD W27A (mouse) (UniProt Q61730). The assay is described as above.
The target of assay [10] is IL-1RAcP-ECD-Fc, wild type (mouse) (UniProt Q61730). Described as above.
Chain of IL-1RAcP-ECD-Fc, wild type (mouse) (Q61730 21-367): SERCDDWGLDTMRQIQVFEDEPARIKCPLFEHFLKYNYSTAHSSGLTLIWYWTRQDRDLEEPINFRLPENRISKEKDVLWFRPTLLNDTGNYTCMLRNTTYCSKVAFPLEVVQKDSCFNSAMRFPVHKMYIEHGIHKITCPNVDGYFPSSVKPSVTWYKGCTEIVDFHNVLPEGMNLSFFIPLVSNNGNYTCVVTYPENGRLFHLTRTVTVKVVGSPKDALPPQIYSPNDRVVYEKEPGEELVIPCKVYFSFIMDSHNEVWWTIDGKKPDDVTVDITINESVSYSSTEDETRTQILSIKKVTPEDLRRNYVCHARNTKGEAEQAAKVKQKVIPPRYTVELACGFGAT

Chain of IL1RAPL1-ECD-His6, wild type (mouse) (P59823 19-352): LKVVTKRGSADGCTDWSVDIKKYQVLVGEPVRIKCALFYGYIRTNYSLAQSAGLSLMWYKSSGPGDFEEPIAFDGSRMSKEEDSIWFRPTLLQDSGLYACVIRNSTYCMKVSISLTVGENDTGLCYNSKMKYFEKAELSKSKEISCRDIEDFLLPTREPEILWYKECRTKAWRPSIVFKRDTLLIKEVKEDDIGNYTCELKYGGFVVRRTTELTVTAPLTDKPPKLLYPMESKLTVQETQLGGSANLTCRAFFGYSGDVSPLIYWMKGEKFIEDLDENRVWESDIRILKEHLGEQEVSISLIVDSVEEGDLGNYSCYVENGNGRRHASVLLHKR
Chain of IL-1RAcP-ECD W27A (mouse) (Q61730 21-367 W27A): as the sequence (Q61730 21-367) above, with W7A counted along it
Chain of IL1RAPL1-ECD D37A (mouse) (P59823 19-352 D37A): as the sequence (P59823 19-352) above, with D19A counted along it
Chain of IL-1RAcP-ECD K94A (mouse) (Q61730 21-367 K94A): as the sequence (Q61730 21-367) above, with K74A counted along it
Chain of IL-1RAcP-ECD D30A (mouse) (Q61730 21-367 D30A): as the sequence (Q61730 21-367) above, with D10A counted along it
Chain of IL1RAPL1-ECD D292A (mouse) (P59823 19-352 D292A): as the sequence (P59823 19-352) above, with D274A counted along it
Chain of IL1RAPL1-ECD M75A/Y77A/P88A/F91A (mouse) (P59823 19-352 M75A/Y77A/P88A/F91A): as the sequence (P59823 19-352) above, with M57A, Y59A, P70A, F73A counted along it
Chain of IL-1RAcP-ECD (His6-tagged, for crystallography) (mouse) (Q61730 21-351): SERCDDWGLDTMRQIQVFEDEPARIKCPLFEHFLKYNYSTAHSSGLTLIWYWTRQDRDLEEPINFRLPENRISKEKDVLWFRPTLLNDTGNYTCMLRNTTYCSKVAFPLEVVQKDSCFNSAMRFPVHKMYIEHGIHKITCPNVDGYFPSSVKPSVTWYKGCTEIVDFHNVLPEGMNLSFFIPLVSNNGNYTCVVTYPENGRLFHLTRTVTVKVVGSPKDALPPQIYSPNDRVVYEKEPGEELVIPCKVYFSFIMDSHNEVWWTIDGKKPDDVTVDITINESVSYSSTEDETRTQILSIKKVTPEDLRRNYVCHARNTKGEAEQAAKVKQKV

Regarding PTPδ Ig1–Fn2 (domain or fragment), the stoichiometry N in assay [1] is 1.

For the substance “PTPδ-ECD (full-length extracellular domain) (domain or fragment)”, the stoichiometry N in [2] was determined as 1.

Turning to “PTPδ Ig1–Fn1 (isoform containing meA9 and meB), wild type (domain or fragment)”, the Kd in [3] turned out to be 2200 nM; in [4] it was 2400 nM; in assay [5] it was 2800 nM; in assay [6], 150 nM; in [7], 620 nM; in [8] it was 8.2 µM. The Kd in assay [9] was 4.6 µM; in [10], 680 nM.
